Measured values from US20190048060A1.
One block for each substance: values may come before it.

Key:
[1] = system: ZFN SBS53853 (engineered); test: cell_activity; conditions: pair with SBS55266, TCRA ZFN only, human T cells
[2] = system: ZFN SBS68812 (engineered); test: cell_activity; conditions: pair with SBS68813, multiplex with B2M and CISH ZFNs plus GFP donor, T cells
[3] = system: ZFN SBS68876 (engineered); test: cell_activity; conditions: pair with SBS68877, human T cells
human CD19 (human) = human CD19 (human) (UniProt P15391); test: cell-based or functional assay
[4] = system: ZFN SBS59489 (engineered); test: cell_activity; conditions: pair with SBS59488, multiplex with TRAC and B2M ZFNs plus GFP donor, T cells
[5] = system: ZFN SBS57531 (engineered); test: cell_activity; conditions: pair with SBS57071, B2M ZFN only, human T cells
[6] = system: ZFN SBS57071 (engineered); test: cell_activity; conditions: pair with SBS57531, B2M ZFN only, human T cells
[7] = system: ZFN SBS59488 (engineered); test: cell_activity; conditions: pair with SBS59489, multiplex with TRAC and B2M ZFNs plus GFP donor, T cells

Substance: AACAGGTAAGACAGGGGTCTAGCCTGGG (double strand) [TCRA site 53853]
activity [1]: 88.3 % indels

Substance: CTCCTGAAAGTGGCCGGGTTTAATCTGC (double strand) [TCRA site 68812/68876]
activity [2]: 93 % knockout
activity (% knockout (CD3 loss)) [3]: 97

CD19+ K562 cells remaining after co-culture with CAR T cells at effector:target 2:1 (CAR inserted at the B2M gene) (human CD19 (human)): 0.4%
CD19+ K562 cells remaining after co-culture with CAR T cells at effector:target 2:1 (CAR inserted at the TCRA gene) (human CD19 (human)): 0.1%
Substance: FMC63-CD8BBZ (CD19 CAR) (from UniProt P01732 138-206; Q07011 214-255; P20963 52-164)

Substance: GAGGAGGTGGCAGAGGGTACCCCAGCCC (double strand) [CISH site 59489]
activity [4]: 98 % knockout

Substance: GAGTAGCGCGAGCACAGCTAAGGCCACG (double strand) [B2M site 57531]
activity [5]: 86.6 % indels

Substance: GCCACGGAGCGAGACATCTCGGCCCGAA (double strand) [B2M site 57071]
activity [6]: 86.6 % indels

Substance: GGAAGGCCCCAGCAGGCAAGGGCTGCAT (double strand) [CISH site 59488]
activity [7]: 98 % knockout
